Results on one substance are retold here after publication PMC7968656.

The test has as its target protrusion protein of OmRV-LZ (N-terminal part of P3, cleaved from the ORF1-encoded precursor) (Omono River virus strain LZ (OmRV-LZ)). Put plainly: cryo-EM structure; sub-particle refinement of the protrusion extracted from the virus particles, capsid signal subtracted; first C1, then C5 symmetry; 4.10 Å.

As to “protrusion protein of OmRV-LZ (N-terminal part of P3, cleaved from the ORF1-encoded precursor) (natural protein)”, the stoichiometry N stood at 5.

As usually defined, the stoichiometry N is the number of molecules, sites or subunits per partner or assembly.
